Values of other authors, collected in patent publication US20190382462A1, “METHODS AND COMPOSITIONS FOR TREATING HPA HYPERACTIVITY” (priority 2017, published 2019).
Read-outs that look alike come from different tables or passages of the source. Where no end group is shown, it is not given here.

Assays:
[1] = target: T1, CRF-BP (Homo sapiens, UniProt P24387)
T1 sequence (P24387 25-322): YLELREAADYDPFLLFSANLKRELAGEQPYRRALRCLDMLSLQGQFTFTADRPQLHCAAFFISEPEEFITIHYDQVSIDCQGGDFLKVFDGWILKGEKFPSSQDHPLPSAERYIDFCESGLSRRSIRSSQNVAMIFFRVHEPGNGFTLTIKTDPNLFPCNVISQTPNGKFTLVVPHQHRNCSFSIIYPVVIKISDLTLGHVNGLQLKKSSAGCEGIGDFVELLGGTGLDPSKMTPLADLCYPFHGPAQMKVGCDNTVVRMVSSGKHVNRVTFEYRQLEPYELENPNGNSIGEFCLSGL

[2] = target: T2, CRF1 (Homo sapiens, UniProt P34998)
T2 sequence (P34998 24-415): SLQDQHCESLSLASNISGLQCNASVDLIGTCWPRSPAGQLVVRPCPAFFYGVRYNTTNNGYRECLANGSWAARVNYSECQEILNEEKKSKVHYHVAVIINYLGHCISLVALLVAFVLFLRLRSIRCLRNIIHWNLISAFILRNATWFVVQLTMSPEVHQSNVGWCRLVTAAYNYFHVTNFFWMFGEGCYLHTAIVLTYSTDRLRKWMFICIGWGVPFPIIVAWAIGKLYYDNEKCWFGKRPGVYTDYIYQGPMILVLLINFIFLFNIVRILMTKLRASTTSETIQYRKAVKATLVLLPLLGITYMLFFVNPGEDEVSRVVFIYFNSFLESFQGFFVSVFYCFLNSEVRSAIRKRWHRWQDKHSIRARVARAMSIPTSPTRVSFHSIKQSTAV

[3] = human serum

Ucn2: CRF-related peptide, selective CRF2 agonist (IVLSLDVPIGLLQILLEQARARAAREQATTNARILARVGHC; ends and bridges not checked; UniProt Q96RP3 72-112, looked up)
affinity for CRF-BP [1]: neither Ucn2 nor Ucn3 exhibits appreciable affinity

urocortin 1 (DNPSLSIDLTFHLLRTLLELARTQSQRERAEQNRIIFDSV; ends and bridges not checked; UniProt P55089 83-122, looked up) [Ucn1]
binding affinity for CRF1 relative to CRF [2]: threefold higher

etanercept
half-life (b287, b290): roughly 70 hours

Factor IX: other formulations of Factor IX alone
half-life (b170, Alprolix: terminal half-life in clinical trials): ~18 h

Human transferrin: highly abundant serum glycoprotein that carries iron
half-life [3]: 170 to 288 h

bevacizumab: therapeutic antibody
circulating serum concentration reported for therapeutic antibody (in vivo): 10 to 30 µg/mL

darbepoetin alfa
serum half-life compared to epoetin alpha and epoetin beta (in vivo): 3 fold

Ucn3: CRF-related peptide, selective CRF2 agonist (FTLSLDVPTNIMNLLFNIAKAKNLRAQAAANAHLMAQI; ends and bridges not checked; UniProt Q969E3 120-157, looked up)
affinity for CRF-BP [1]: neither Ucn2 nor Ucn3 exhibits appreciable affinity

aglycosylated form of human transferrin: aglycosylated form, about 2-8% of the total transferrin pool
half-life [3]: 336 to 408 h
